The results in this text go back to publication PMC12702239, “The regulatory mechanisms of SARS-CoV-2 N protein helicase and its annealing activity”.

One data set deals with CoV-2 Nsp13 helicase (SARS-CoV-2, UniProt P0DTD1 5325-5925). Nature of the data set: fluorescence anisotropy; 10-42 C; no significant change. The note with it: protein: recombinant; tags: N-terminal SUMO tag removed with SUMO protease; label: 3'-6-FAM on strand 1; 5' overhang 22 nt, 21 bp. On the technique in general: Polarisation of emitted light reports the rotation of a fluorescent probe.

The target of the next data set is CoV-2 N (nucleocapsid) (SARS-CoV-2, UniProt P0DTC9 1-419). Description: fluorescence anisotropy; 50 mM NaCl, no Mg2+, no ATP; FP: 25 mM Tris-HCl pH 7.6, 50 mM NaCl, no Mg2+, 5 nM labelled nucleic acid, 5 min; temperature not stated; Kd from Hill fits (values not in the text). The note with it: protein: recombinant; tags: His6; chain copies: 2; label: 3'-6-FAM on strand 1; 5' overhang 22 nt, 21 bp.

B1: 5'D/D-OhS22D21 (dsDNA)
DNA 1: CTGTAGGAATGTGAAATAAAAACGATGTTTTATTTACATTGTA
DNA 2: TACAATGTAAATAAAACATCG
With B1, the binding result in the data set with CoV-2 Nsp13 helicase and with CoV-2 N (nucleocapsid) was “binds” each time.
